Assay results: doi:10.1101/2021.01.28.428596

Target: RIR1-GFP (ProRIR1:RIR1-GFP in the rir1-1 mutant) (Arabidopsis thaliana) (UniProt C0LGG9)
Experiment: FRET or BRET

Chain of UniProt C0LGG9 (C0LGG9 27-1035, change not shown): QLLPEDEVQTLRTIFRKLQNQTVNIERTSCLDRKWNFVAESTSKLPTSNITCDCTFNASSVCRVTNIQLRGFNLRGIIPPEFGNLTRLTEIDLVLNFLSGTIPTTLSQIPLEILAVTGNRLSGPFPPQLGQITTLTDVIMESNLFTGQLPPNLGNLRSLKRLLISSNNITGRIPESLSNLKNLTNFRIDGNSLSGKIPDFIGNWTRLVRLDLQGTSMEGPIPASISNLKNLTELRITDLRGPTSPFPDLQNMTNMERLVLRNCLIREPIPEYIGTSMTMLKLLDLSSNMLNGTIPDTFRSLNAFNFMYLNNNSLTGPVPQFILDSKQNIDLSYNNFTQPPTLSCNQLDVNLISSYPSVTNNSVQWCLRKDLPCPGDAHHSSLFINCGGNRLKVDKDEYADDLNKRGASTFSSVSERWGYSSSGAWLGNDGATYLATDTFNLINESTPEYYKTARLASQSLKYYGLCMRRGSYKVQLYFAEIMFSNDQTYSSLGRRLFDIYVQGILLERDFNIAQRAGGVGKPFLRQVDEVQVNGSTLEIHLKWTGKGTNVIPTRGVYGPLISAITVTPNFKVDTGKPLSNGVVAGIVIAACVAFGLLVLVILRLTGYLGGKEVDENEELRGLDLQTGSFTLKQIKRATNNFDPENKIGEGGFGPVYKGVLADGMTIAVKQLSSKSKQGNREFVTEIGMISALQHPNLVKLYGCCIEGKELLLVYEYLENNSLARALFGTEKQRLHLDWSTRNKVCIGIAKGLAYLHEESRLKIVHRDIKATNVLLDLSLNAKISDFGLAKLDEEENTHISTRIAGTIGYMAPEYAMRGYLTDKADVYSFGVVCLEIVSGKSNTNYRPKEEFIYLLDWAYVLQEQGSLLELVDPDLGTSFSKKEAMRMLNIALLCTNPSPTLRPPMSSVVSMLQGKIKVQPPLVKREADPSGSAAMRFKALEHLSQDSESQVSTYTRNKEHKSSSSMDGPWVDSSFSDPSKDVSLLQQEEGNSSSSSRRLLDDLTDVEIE

GFP donor fluorescence lifetime with acceptor (τDA): 2.21 ns
Substance: mCherry-REM1.2 (ProREM1.2-mCherry-REM1.2 in rir1-1/RIR1-GFP#3) (from UniProt P0CAP4 1-446) (natural protein)
